Data set [1] has as its system PARP1. Put plainly: fluorescence anisotropy. As to conditions: 400 nM olaparib; 50 mM NaCl, 50 mM Tris-HCl pH 8.0, 4 mM DTT; 25 nM FAM-DNA, 20-200 nM PARP1 or 20-800 nM PARP2; mixed on ice, 10 min at room temperature. Background: Polarisation of emitted light reports the rotation of a fluorescent probe.
In data set [2] the test system is PARP2. Briefly: fluorescence anisotropy. Particulars: 800 nM olaparib; 50 mM NaCl, 50 mM Tris-HCl pH 8.0, 4 mM DTT; 25 nM FAM-DNA, 20-200 nM PARP1 or 20-800 nM PARP2; mixed on ice, 10 min at room temperature.

The results in this text go back to PMC11640836, “Aminomethylmorpholino Nucleosides as Novel Inhibitors of PARP1 and PARP2: Experimental and Molecular Modeling Analyses of Their Selectivity and Mechanism of Action” (International Journal of Molecular Sciences, 2024).

In the case of FAM gap-DNA (32-mer duplex, 1-nt gap), the binding signal (fold increase of EC50 vs no inhibitor) in data set [1] came to 1.8; in data set [2] it was 1.6.
